Here are results for 2 molecules from publication PMC5584161, “Selective compounds enhance osteoblastic activity by targeting HECT domain of ubiquitin ligase Smurf1” (Oncotarget, 2016).

B1: GST-Smurf1 (Smad ubiquitination regulatory factor-1) (enzyme, UniProt Q9HCE7-2 1-731, looked up)
chain: MSNPGTRRNGSSIKIRLTVLCAKNLAKKDFFRLPDPFAKIVVDGSGQCHSTDTVKNTLDPKWNQHYDLYVGKTDSITISVWNHKKIHKKQGAGFLGCVRLLSNAISRLKDTGYQRLDLCKLNPSDTDAVRGQIVVSLQTRDRIGTGGSVVDCRGLLENEGTVYEDSGPGRPLSCFMEEPAPYTDSTGAAAGGGNCRFVESPSQDQRLQAQRLRNPDVRGSLQTPQNRPHGHQSPELPEGYEQRTTVQGQVYFLHTQTGVSTWHDPRIPRDLNSVNCDELGPLPPGWEVRSTVSGRIYFVDHNNRTTQFTDPRLHHIMNHQCQLKEPSQPLPLPSEGSLEDEELPAQRYERDLVQKLKVLRHELSLQQPQAGHCRIEVSREEIFEESYRQIMKMRPKDLKKRLMVKFRGEEGLDYGGVAREWLYLLCHEMLNPYYGLFQYSTDNIYMLQINPDSSINPDHLSYFHFVGRIMGLAVFHGHYINGGFTVPFYKQLLGKPIQLSDLESVDPELHKSLVWILENDITPVLDHTFCVEHNAFGRILQHELKPNGRNVPVTEENKKEYVRLYVNWRFMRGIEAQFLALQKGFNELIPQHLLKPFDQKELELIIGGLDKIDLNDWKSNTRLKHCVADSNIVRWFWQAVETFDEERRARLLQFVTGSTRVPLQGFKALQGSTGAAGPRLFTIHLIDANTDNLPKAHTCFNRIDIPPYESYEKLYEKLLTAVEETCGFAVE
notes: Smurf1, HECT-type ubiquitin ligase; also called GST-tagged Smurf1; source: bacteria-expressed, immobilized on Glutathione-Sepharose 4B beads
B2: UbcH5c (enzyme)
chain: not shown
notes: UbcH5c, ubiquitin-conjugating enzyme (E2) of Smurf1; The methods say the assay is the same as GST-Smurf1 with His-Ub, so a His tag is likely; also called E2; source: prokaryotic expressed, purified

Assay in all cases: pull-down; GST fusion immobilized on Glutathione-Sepharose 4B beads, incubated with the partner for 8 h at 4°C; washed with GST-binding buffer (100 mM NaCl, 50 mM NaF, 2 mM EDTA, 1% NP-40); immunoblotting; also run with B06 and B75 where the paper says they had no effect
Conditions in all cases: both partners purified
In general terms: In western blotting, separated proteins are transferred to a membrane and probed.

One assay has as its target T1, His-Ub (ubiquitin) (UniProt P0CG48 1-76).
T1 construct: ubiquitin, single (mono) ubiquitin; also called mono-Ub; single Ub protein

A further assay addresses T2, UbcH7 (UniProt P68036 1-154).
T2 construct: UbcH7, ubiquitin-conjugating enzyme (E2) of Smurf1; The methods say the assay is the same as GST-Smurf1 with His-Ub, so a His tag is likely; also called E2; source: prokaryotic expressed, purified

The target in assay [1] is B1.

T2 sequence (P68036 whole entry): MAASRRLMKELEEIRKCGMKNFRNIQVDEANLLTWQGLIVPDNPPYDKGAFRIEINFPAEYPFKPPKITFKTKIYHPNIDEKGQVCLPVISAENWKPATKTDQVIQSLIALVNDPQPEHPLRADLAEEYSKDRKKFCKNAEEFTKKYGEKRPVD

Take B1: the binding result in the assay with His-Ub (ubiquitin) and with UbcH7 was “binds” each time.
B2: the binding result in assay [1] is on record as “binds”.
